Laboratory results as given in US20230285583A1, “LIQUID FORMULATION OF LONG-ACTING CONJUGATE OF GLUCAGON, GLP-1, AND GIP TRIGONAL AGONIST” (HANMI PHARM, CO., LTD., priority 2020, published 2023).
Bridge positions count the residues as written; N and C are the ends. Square brackets hold non-standard residues; d marks the D form. Ends that are not written are not given here. * marks the point of attachment. Acetyl(2-(4-imidazolyl)) = O=C(Cc1c[nH]cn1)*; Aib = CC(C)(N)C(=O)O

T1: human GIP receptor (human, UniProt P48546 22-466)
T1 sequence (looked up): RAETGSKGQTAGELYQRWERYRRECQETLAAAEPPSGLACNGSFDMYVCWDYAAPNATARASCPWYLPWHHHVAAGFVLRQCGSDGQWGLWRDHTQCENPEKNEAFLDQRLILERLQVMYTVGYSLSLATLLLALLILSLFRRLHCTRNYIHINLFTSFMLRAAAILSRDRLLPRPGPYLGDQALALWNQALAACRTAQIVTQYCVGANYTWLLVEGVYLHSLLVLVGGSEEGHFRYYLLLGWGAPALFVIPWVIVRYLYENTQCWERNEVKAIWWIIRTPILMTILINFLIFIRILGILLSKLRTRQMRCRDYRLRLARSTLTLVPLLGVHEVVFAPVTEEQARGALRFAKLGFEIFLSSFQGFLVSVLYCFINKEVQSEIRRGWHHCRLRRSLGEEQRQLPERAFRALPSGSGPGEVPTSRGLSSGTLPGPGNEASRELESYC

B1: trigonal agonist of SEQ ID NO: 8 (peptide)
peptide: H[Aib]QGTFTSDYSKYLDECRQKEFVQWLLNGGPSSGAPPPSG
modifications: bridge 16-20; not fully specified (bridges)
B2: trigonal agonist of SEQ ID NO: 4 (peptide)
peptide: H[Aib]QGTFTSDYSKYLDEKACKEFVQWLLAQ
modifications: bridge 16-20; not fully specified (bridges)
B3: trigonal agonist of SEQ ID NO: 11 (peptide)
peptide: H[Aib]QGTFTSDYSKYLDEKRAKEFVQWLLDHHPSSGQPPPSC
modifications: bridge 16-20; not fully specified (bridges)
B4: trigonal agonist of SEQ ID NO: 46 (peptide)
peptide: Y[Aib]QGTFTSDYSKALDEKAAKDFVNWLLDQHPSSGQPPPSC
modifications: bridge 16-20; not fully specified (bridges)
B5: trigonal agonist of SEQ ID NO: 10 (peptide)
peptide: Y[Aib]QGTFTSDYSKYLDEKRAKEFVQWLLDHHCSSGQPPPS
modifications: bridge 16-20; not fully specified (bridges)
B6: trigonal agonist of SEQ ID NO: 7 (peptide)
peptide: H[Aib]QGTFTSDYSKYLCEKRQKEFVQWLLNGGPSSGAPPPSG
modifications: bridge 16-20; not fully specified (bridges)
B7: trigonal agonist of SEQ ID NO: 44 (peptide)
peptide: Y[Aib]QGTFTSDYSKALDEKAAKEFVQWLLDQHPSSGQPPPSC
modifications: bridge 16-20; not fully specified (bridges)
B8: trigonal agonist of SEQ ID NO: 45 (peptide)
peptide: Y[Aib]QGTFTSDYSKALDEKAAKEFVNWLLDQHPSSGQPPPSC
modifications: bridge 16-20; not fully specified (bridges)
B9: trigonal agonist of SEQ ID NO: 39 (peptide)
peptide: [Acetyl(2-(4-imidazolyl))][Aib]QGTFTSDYSKYLDEKRQKEFVNWLLAQKC
modifications: bridge 16-20; not fully specified (bridges)
B10: trigonal agonist of SEQ ID NO: 41 (peptide)
peptide: Y[Aib]QGTFTSDYSKYLDEKRAKEFVQWLLDCHPSSGQPPPS
modifications: bridge 16-20; not fully specified (bridges); ends not checked
B11: trigonal agonist of SEQ ID NO: 12 (peptide)
peptide: H[Aib]QGTFTSDYSKYLDEKRQKEFVQWLLNTC
modifications: bridge 16-20; not fully specified (bridges)
B12: trigonal agonist of SEQ ID NO: 34 (peptide)
peptide: H[Aib]EGTFTSDYSIAMDEIHQKDFVNWLLAQKC
modifications: lactam 16-20

Each binder was assayed against human GLP-1 receptor (human, UniProt P43220 24-463) (assay: cell-based or functional assay).
B1 was tested, and the “In Vitro Activity Compared to Native Peptide (%) vs. GLP-1 (relative titer from cAMP EC50)” value was 236%. B2 was tested, and the “In Vitro Activity Compared to Native Peptide (%) vs. GLP-1 (relative titer from cAMP EC50)” value was 135%. B3 was tested, and the “In Vitro Activity Compared to Native Peptide (%) vs. GLP-1 (relative titer from cAMP EC50)” value was 67.4%. In the case of B4, the “In Vitro Activity Compared to Native Peptide (%) vs. GLP-1 (relative titer from cAMP EC50)” value is reported as 23.3%. In the case of B5, the “In Vitro Activity Compared to Native Peptide (%) vs. GLP-1 (relative titer from cAMP EC50)” value is reported as 12.6%. In the case of B6, the “In Vitro Activity Compared to Native Peptide (%) vs. GLP-1 (relative titer from cAMP EC50)” value is reported as 37.4%. In the case of B7, the “In Vitro Activity Compared to Native Peptide (%) vs. GLP-1 (relative titer from cAMP EC50)” value is reported as 42.2%. With B8 the “In Vitro Activity Compared to Native Peptide (%) vs. GLP-1 (relative titer from cAMP EC50)” value was 23.2%. In the case of B9, the “In Vitro Activity Compared to Native Peptide (%) vs. GLP-1 (relative titer from cAMP EC50)” value is reported as 5.7%. With B10 the “In Vitro Activity Compared to Native Peptide (%) vs. GLP-1 (relative titer from cAMP EC50)” value was 10.5%. B11 was tested, and the “In Vitro Activity Compared to Native Peptide (%) vs. GLP-1 (relative titer from cAMP EC50)” value was 14.4%. For B12, the “In Vitro Activity Compared to Native Peptide (%) vs. GLP-1 (relative titer from cAMP EC50)” value was 41.5%.

Each binder was assayed against T1, human GIP receptor (assay: cell-based or functional assay).
B1 was tested, and the “In Vitro Activity Compared to Native Peptide (%) vs. GIP (relative titer from cAMP EC50)” value was 2.2%. For B2, the “In Vitro Activity Compared to Native Peptide (%) vs. GIP (relative titer from cAMP EC50)” value was 2.4%. In the case of B3, the “In Vitro Activity Compared to Native Peptide (%) vs. GIP (relative titer from cAMP EC50)” value is reported as 2.7%. In the case of B4, the “In Vitro Activity Compared to Native Peptide (%) vs. GIP (relative titer from cAMP EC50)” value is reported as 58%. B5 was tested, and the “In Vitro Activity Compared to Native Peptide (%) vs. GIP (relative titer from cAMP EC50)” value was 3.7%. B6 was tested, and the “In Vitro Activity Compared to Native Peptide (%) vs. GIP (relative titer from cAMP EC50)” value was 0.2%. In the case of B7, the “In Vitro Activity Compared to Native Peptide (%) vs. GIP (relative titer from cAMP EC50)” value is reported as 118%. B8 was tested, and the “In Vitro Activity Compared to Native Peptide (%) vs. GIP (relative titer from cAMP EC50)” value was 40.1%. B9 was tested, and the “In Vitro Activity Compared to Native Peptide (%) vs. GIP (relative titer from cAMP EC50)” value was 0.7%. B10 was tested, and the “In Vitro Activity Compared to Native Peptide (%) vs. GIP (relative titer from cAMP EC50)” value was 2.6%. In the case of B11, the “In Vitro Activity Compared to Native Peptide (%) vs. GIP (relative titer from cAMP EC50)” value is reported as 0.1%. With B12 the “In Vitro Activity Compared to Native Peptide (%) vs. GIP (relative titer from cAMP EC50)” value was 1.4%.

The binders below were run against human GCG receptor (human, UniProt P47871 26-477) (assay: cell-based or functional assay).
human GCG receptor, sequence (P47871 26-477): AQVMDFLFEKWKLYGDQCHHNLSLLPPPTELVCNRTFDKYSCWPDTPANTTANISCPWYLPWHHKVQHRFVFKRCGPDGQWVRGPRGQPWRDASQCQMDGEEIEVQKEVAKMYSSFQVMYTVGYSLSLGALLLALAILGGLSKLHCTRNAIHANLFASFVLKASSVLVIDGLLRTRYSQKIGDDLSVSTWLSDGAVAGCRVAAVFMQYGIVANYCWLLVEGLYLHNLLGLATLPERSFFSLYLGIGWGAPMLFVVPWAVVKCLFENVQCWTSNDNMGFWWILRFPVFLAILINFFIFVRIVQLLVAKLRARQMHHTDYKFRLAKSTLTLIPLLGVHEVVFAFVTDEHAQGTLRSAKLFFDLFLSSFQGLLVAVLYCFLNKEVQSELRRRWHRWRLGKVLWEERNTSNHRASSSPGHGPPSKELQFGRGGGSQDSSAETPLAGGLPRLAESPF
For B1, the “In Vitro Activity Compared to Native Peptide (%) vs. Glucagon (relative titer from cAMP EC50)” value was 6.21%. B2 was tested, and the “In Vitro Activity Compared to Native Peptide (%) vs. Glucagon (relative titer from cAMP EC50)” value was 2.2%. With B3 the “In Vitro Activity Compared to Native Peptide (%) vs. Glucagon (relative titer from cAMP EC50)” value was 50.5%. For B4, the “In Vitro Activity Compared to Native Peptide (%) vs. Glucagon (relative titer from cAMP EC50)” value was 29.5%. For B5, the “In Vitro Activity Compared to Native Peptide (%) vs. Glucagon (relative titer from cAMP EC50)” value was 88.4%. For B6, the “In Vitro Activity Compared to Native Peptide (%) vs. Glucagon (relative titer from cAMP EC50)” value was 0.39%. B7 was tested, and the “In Vitro Activity Compared to Native Peptide (%) vs. Glucagon (relative titer from cAMP EC50)” value was 12.7%. In the case of B8, the “In Vitro Activity Compared to Native Peptide (%) vs. Glucagon (relative titer from cAMP EC50)” value is reported as 13.9%. In the case of B9, the “In Vitro Activity Compared to Native Peptide (%) vs. Glucagon (relative titer from cAMP EC50)” value is reported as 0.3%. For B10, the “In Vitro Activity Compared to Native Peptide (%) vs. Glucagon (relative titer from cAMP EC50)” value was 62.8%. B11 was tested, and the “In Vitro Activity Compared to Native Peptide (%) vs. Glucagon (relative titer from cAMP EC50)” value was 2%. For B12, the “In Vitro Activity Compared to Native Peptide (%) vs. Glucagon (relative titer from cAMP EC50)” value was 4.9%.
